Results taken from US12534531 (MacroGenics, dated 2026).
Numbering of substitutions follows the chain as printed. Blank lines part the entries; values can stand above or below the binder they belong to.

Key:
[1] = biological target: T1, human PD-1 expressed on the surface of cells (NSO cells expressing human PD-1; MNFAT-luc2/PD-1 Jurkat cells) (human, UniProt Q15116 21-288); experiment: FACS saturation binding to NSO cells expressing PD-1; SM; SD 0.4140
T1 construct: also called cell surface PD-1; PDCD1 transfected NSO cells expressing PD-1

[2] = biological target: T2, human LAG-3 expressed on NSO cells (human, UniProt P18627 29-525); experiment: FACS saturation binding to NSO cells expressing LAG-3; SM; SD 0.5326
T2 sequence: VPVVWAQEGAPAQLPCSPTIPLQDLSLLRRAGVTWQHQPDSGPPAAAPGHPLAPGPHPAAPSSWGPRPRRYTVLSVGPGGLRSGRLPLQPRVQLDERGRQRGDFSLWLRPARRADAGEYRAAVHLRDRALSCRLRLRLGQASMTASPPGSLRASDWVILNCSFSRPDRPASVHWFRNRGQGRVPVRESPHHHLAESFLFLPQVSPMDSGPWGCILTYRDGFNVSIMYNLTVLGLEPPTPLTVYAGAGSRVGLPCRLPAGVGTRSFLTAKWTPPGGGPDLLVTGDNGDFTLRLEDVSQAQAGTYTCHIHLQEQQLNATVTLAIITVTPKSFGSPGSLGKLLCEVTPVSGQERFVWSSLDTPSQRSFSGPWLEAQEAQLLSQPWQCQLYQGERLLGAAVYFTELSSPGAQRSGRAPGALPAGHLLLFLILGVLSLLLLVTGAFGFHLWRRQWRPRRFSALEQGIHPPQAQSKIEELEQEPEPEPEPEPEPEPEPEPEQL

[3] = biological target: T1, human PD-1 expressed on the surface of …; experiment: FACS: inhibition of sPD-L1 binding to PD-1 on NSO cells; SM; SD 0.1692
[4] = biological target: T1, human PD-1 expressed on the surface of …; experiment: FACS: inhibition of sPD-L2 binding to PD-1 on NSO cells; SM; SD 0.5869
[5] = biological target: T3, biotinylated-soluble human LAG-3-Fc fusion protein (human, UniProt P18627 23-450, biotinylated (site not stated)); experiment: FACS: inhibition of shLAG-3-Fc binding to MHC II on Daudi cells (column head prints EC50); SM; SD 1.1398
T3 construct: whole entry named; also called shLAG-3; shLAG-3-Fc; not shown: Fc
T3 sequence: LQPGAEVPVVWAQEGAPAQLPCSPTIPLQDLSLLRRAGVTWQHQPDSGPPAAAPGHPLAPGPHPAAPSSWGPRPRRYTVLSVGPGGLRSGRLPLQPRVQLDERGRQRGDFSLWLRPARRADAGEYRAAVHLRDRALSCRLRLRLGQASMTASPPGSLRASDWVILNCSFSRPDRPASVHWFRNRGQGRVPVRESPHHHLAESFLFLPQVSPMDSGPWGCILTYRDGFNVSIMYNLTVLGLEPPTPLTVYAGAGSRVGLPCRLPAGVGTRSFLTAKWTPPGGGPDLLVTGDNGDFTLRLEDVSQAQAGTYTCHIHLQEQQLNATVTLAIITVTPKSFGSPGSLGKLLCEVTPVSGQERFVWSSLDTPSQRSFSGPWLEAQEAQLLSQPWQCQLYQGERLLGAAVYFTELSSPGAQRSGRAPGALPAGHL

[6] = biological target: T1, human PD-1 expressed on the surface of …; experiment: FACS saturation binding to NSO cells expressing PD-1; SM; SD 0.4324
[7] = biological target: T2, human LAG-3 expressed on NSO cells; experiment: FACS saturation binding to NSO cells expressing LAG-3; SM; SD 0.2231
[8] = biological target: T1, human PD-1 expressed on the surface of …; experiment: FACS: inhibition of sPD-L1 binding to PD-1 on NSO cells; SM; SD 0.1485
[9] = biological target: T1, human PD-1 expressed on the surface of …; experiment: FACS: inhibition of sPD-L2 binding to PD-1 on NSO cells; SM; SD 0.4285
[10] = biological target: T3, biotinylated-soluble human LAG-3-Fc …; experiment: FACS: inhibition of shLAG-3-Fc binding to MHC II on Daudi cells (column head prints EC50); SM; SD 1.6465
[11] = biological target: T1, human PD-1 expressed on the surface of …; experiment: FACS: inhibition of sPD-L1 binding to PD-1 on NSO cells; SM; SD 0.0007
[12] = biological target: T1, human PD-1 expressed on the surface of …; experiment: FACS: inhibition of sPD-L2 binding to PD-1 on NSO cells; SM; SD 0.3154
[13] = biological target: T1, human PD-1 expressed on the surface of …; experiment: FACS saturation binding to NSO cells expressing PD-1; single experiment
[14] = biological target: T2, human LAG-3 expressed on NSO cells; experiment: FACS saturation binding to NSO cells expressing LAG-3; single experiment
[15] = biological target: T3, biotinylated-soluble human LAG-3-Fc …; experiment: FACS: inhibition of shLAG-3-Fc binding to MHC II on Daudi cells (column head prints EC50); SM; SD 0.1104
[16] = biological target: T1, human PD-1 expressed on the surface of …; experiment: FACS saturation binding to NSO cells expressing PD-1; SM; SD 0.5742
[17] = biological target: T2, human LAG-3 expressed on NSO cells; experiment: FACS saturation binding to NSO cells expressing LAG-3; SM; SD 0.8075
[18] = biological target: T1, human PD-1 expressed on the surface of …; experiment: FACS: inhibition of sPD-L1 binding to PD-1 on NSO cells; SM; SD 0.3307
[19] = biological target: T1, human PD-1 expressed on the surface of …; experiment: FACS: inhibition of sPD-L2 binding to PD-1 on NSO cells; SM; SD 0.7736
[20] = biological target: T3, biotinylated-soluble human LAG-3-Fc …; experiment: FACS: inhibition of shLAG-3-Fc binding to MHC II on Daudi cells (column head prints EC50); SM; SD 2.9177

T1 sequence (Q15116 21-288): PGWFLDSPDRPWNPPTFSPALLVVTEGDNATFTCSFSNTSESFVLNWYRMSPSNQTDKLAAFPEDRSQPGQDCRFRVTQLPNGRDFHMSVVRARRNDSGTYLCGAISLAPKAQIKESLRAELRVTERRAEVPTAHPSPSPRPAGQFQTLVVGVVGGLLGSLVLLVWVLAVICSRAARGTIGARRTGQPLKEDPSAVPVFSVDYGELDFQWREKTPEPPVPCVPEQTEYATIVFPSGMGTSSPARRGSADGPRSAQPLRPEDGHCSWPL

- EC50 [1]: 2230 nM
- EC50 [2]: 898 nM
- IC50 [3]: 1550 nM
- IC50 [4]: 3130 nM
- IC50 [5]: 1180 nM
B1: DART D (bispecific antibody, human IgG4 S228P, kappa)
chain 1: EIVLTQSPATLSLSPGERATLSCRASESVDNYGMSFMNWFQQKPGQPPKLLIHAASNQGSGVPSRFSGSGSGTDFTLTISSLEPEDFAVYFCQQSKEVPYTFGGGTKVEIKGGGSGGGGQVQLVQSGAEVKKPGASVKVSCKASGYTFTNYGMNWVRQAPGQGLEWMGWINTYTGESTYADDFEGRFVFSMDTSASTAYLQISSLKAEDTAVYYCARESLYDYYSMDYWGQGTTVTVSSLGGGSGASTKGPSVFPLAPCSRSTSESTAALGCLVKDYFPEPVTVSWNSGALTSGVHTFPAVLQSSGLYSLSSVVTVPSSSLGTKTYTCNVDHKPSNTKVDKRVESKYGPPCPPCPAPEFLGGPSVFLFPPKPKDTLYITREPEVTCVVVDVSQEDPEVQFNWYVDGVEVHNAKTKPREEQFNSTYRVVSVLTVLHQDWLNGKEYKCKVSNKGLPSSIEKTISKAKGQPREPQVYTLPPSQEEMTKNQVSLTCLVKGFYPSDIAVEWESNGQPENNYKTTPPVLDSDGSFFLYSRLTVDKSRWQEGNVFSCSVMHEALHNHYTQKSLSLSLG
chain 2: DIVMTQTPLSLSVTPGQPASISCKSSQSLLHSDAKTYLNWLLQKPGQPPERLIYLVSELDSGVPDRFSGSGSGTDFTLKISRVEAEDVGVYYCWQGTHFPYTFGGGTKVEIKGGGSGGGGQVQLVQSGAEVKKPGASVKVSCKASGYSFTSYWMNWVRQAPGQGLEWIGVIHPSDSETWLDQKFKDRVTITVDKSTSTAYMELSSLRSEDTAVYYCAREHYGTSPFAYWGQGTLVTVSSLGGGSGRTVAAPSVFIFPPSDEQLKSGTASVVCLLNNFYPREAKVQWKVDNALQSGNSQESVTEQDSKDSTYSLSSTLTLSKADYEKHKVYACEVTHQGLSSPVTKSFNRGEC

- EC50 [6]: 1930 nM
- EC50 [7]: 840 nM
- IC50 [8]: 964 nM
- IC50 [9]: 1630 nM
- IC50 [10]: 1380 nM
B2: DART A (bispecific antibody, human IgG4 S228P)
chain 1: DIVMTQTPLSLSVTPGQPASISCKSSQSLLHSDAKTYLNWLLQKPGQPPERLIYLVSELDSGVPDRFSGSGSGTDFTLKISRVEAEDVGVYYCWQGTHFPYTFGGGTKVEIKGGGSGGGGQVQLVQSGAEVKKPGASVKVSCKASGYSFTSYWMNWVRQAPGQGLEWIGVIHPSDSETWLDQKFKDRVTITVDKSTSTAYMELSSLRSEDTAVYYCAREHYGTSPFAYWGQGTLVTVSSGGCGGGEVAACEKEVAALEKEVAALEKEVAALEKESKYGPPCPPCPAPEFLGGPSVFLFPPKPKDTLYITREPEVTCVVVDVSQEDPEVQFNWYVDGVEVHNAKTKPREEQFNSTYRVVSVLTVLHQDWLNGKEYKCKVSNKGLPSSIEKTISKAKGQPREPQVYTLPPSQEEMTKNQVSLTCLVKGFYPSDIAVEWESNGQPENNYKTTPPVLDSDGSFFLYSRLTVDKSRWQEGNVFSCSVMHEALHNHYTQKSLSLSLG
chain 2: EIVLTQSPATLSLSPGERATLSCRASESVDNYGMSFMNWFQQKPGQPPKLLIHAASNQGSGVPSRFSGSGSGTDFTLTISSLEPEDFAVYFCQQSKEVPYTFGGGTKVEIKGGGSGGGGQVQLVQSGAEVKKPGASVKVSCKASGYTFTNYGMNWVRQAPGQGLEWMGWINTYTGESTYADDFEGRFVFSMDTSASTAYLQISSLKAEDTAVYYCARESLYDYYSMDYWGQGTTVTVSSGGCGGGKVAACKEKVAALKEKVAALKEKVAALKE

- IC50 [11]: 1150 nM
- IC50 [12]: 2120 nM
- EC50 [13]: 1760 nM
- EC90 [13]: 12300 nM
- EC50 [14]: 1080 nM
- IC50 [15]: 408 nM
B3: DART B (bispecific antibody, human IgG4 S228P)
chain 1: B2 chain 1 with A34G
chain 2: B2 chain 2

- EC50 [16]: 3220 nM
- EC50 [17]: 925 nM
- IC50 [18]: 1650 nM
- IC50 [19]: 2950 nM
- IC50 [20]: 3270 nM
B4: DART E (bispecific antibody, human IgG4 S228P, kappa)
chain 1: DIVMTQTPLSLSVTPGQPASISCKSSQSLLHSDAKTYLNWLLQKPGQPPERLIYLVSELDSGVPDRFSGSGSGTDFTLKISRVEAEDVGVYYCWQGTHFPYTFGGGTKVEIKGGGSGGGGQVQLVQSGAEVKKPGASVKVSCKASGYSFTSYWMNWVRQAPGQGLEWIGVIHPSDSETWLDQKFKDRVTITVDKSTSTAYMELSSLRSEDTAVYYCAREHYGTSPFAYWGQGTLVTVSSLGGGSGASTKGPSVFPLAPCSRSTSESTAALGCLVKDYFPEPVTVSWNSGALTSGVHTFPAVLQSSGLYSLSSVVTVPSSSLGTKTYTCNVDHKPSNTKVDKRVESKYGPPCPPCPAPEFLGGPSVFLFPPKPKDTLYITREPEVTCVVVDVSQEDPEVQFNWYVDGVEVHNAKTKPREEQFNSTYRVVSVLTVLHQDWLNGKEYKCKVSNKGLPSSIEKTISKAKGQPREPQVYTLPPSQEEMTKNQVSLTCLVKGFYPSDIAVEWESNGQPENNYKTTPPVLDSDGSFFLYSRLTVDKSRWQEGNVFSCSVMHEALHNHYTQKSLSLSLG
chain 2: EIVLTQSPATLSLSPGERATLSCRASESVDNYGMSFMNWFQQKPGQPPKLLIHAASNQGSGVPSRFSGSGSGTDFTLTISSLEPEDFAVYFCQQSKEVPYTFGGGTKVEIKGGGSGGGGQVQLVQSGAEVKKPGASVKVSCKASGYTFTNYGMNWVRQAPGQGLEWMGWINTYTGESTYADDFEGRFVFSMDTSASTAYLQISSLKAEDTAVYYCARESLYDYYSMDYWGQGTTVTVSSLGGGSGRTVAAPSVFIFPPSDEQLKSGTASVVCLLNNFYPREAKVQWKVDNALQSGNSQESVTEQDSKDSTYSLSSTLTLSKADYEKHKVYACEVTHQGLSSPVTKSFNRGEC
